Laboratory results taken from patent US9670249B2, “Amphiphilic peptides and hydrogel matrices thereof for bone repair” (Ben-Gurion University of the Negev Research and Development …, priority 2006, dated 2017).
No end group written: not given here.

What was measured:
[1] = Hydrogel formation by dissolving peptides in NaOH solution; assay type: physicochemical; details: for Resultant pH / Self supporting gel formation assigned+: 4% weight peptide in 100 μl NaOH solution; for pH at which hydrogel is stabilized / formed: 0.023M peptide in NaOH solutions
Protocol: In general the matrix can be formed in the following way: dissolving the peptides at high pH above about 8) using either buffer (Tris) or NaOH. With the addition of the peptide the pH of the mixture drops and hydrogel may form. The peptide that is dissolved in alkaline solution can be titrated with HCl to a pH ˜7 to form yield a gel. The same can be done with HA or other mineral particles incorporated in the first step […]. Upon gelation the particles get trapped in the gel.
Four peptides were tested for their tendency to form hydrogels as function of pH and Ca^+2 ion concentrations. The peptides are 13 amino acids long having the sequence P-Y-(Z-Y)n-P, wherein n=5 and Y and Z are alternating hydrophilic (Y) and hydrophobic (Z) amino acids:
The experiment goal was to find appropriate conditions for hydrogel formation at physiological pH values (˜7.2) assuming that the type of amino acids in the dyads will determine the propensity of the system to form hydrogles thus the pH and the Ca^+2 ionic concentration of the system.
In an alkaline solution the acidic amino acid side chains tend to be negatively charged. Under these conditions charge-charge repulsive forces keep the peptides dissolved in solution. Upon lowering the pH the peptides which become uncharged undergo self-assembling through inter-strand hydrogen bonding, to form fibrous structure (FIG. 3) that stabilizes highly hydrated-gel, hydrogel. […] All the peptides lowered the pH of the solution to about 6-8 (Table 1).
In the next set of experiments the hypothesis that the more hydrophobic side chains would stabilize the beta-sheet fibril thus hydrogel formation, at higher pH values, was tested. Table 2 summarizes the effect of the hydrophobic side chain on the pH at which hydrogel is obtained. PLE-13 and PFE-13 were dissolved in different NaOH solutions to the same molar concentration (0.023M). […]

[2] = as above; assay type: physicochemical; details: 4% weight peptide in 100 μl NaOH solution, NaOH conc. 0.03

| Substance | Resultant pH ([1]; NaOH conc. 0.03) | Resultant pH ([1]; NaOH conc. 0.05) | Self supporting gel formation assigned+ ([1]; NaOH conc. 0.05) | pH at which hydrogel is stabilized / formed [1] | Self supporting gel formation assigned+ [2] |
| --- | --- | --- | --- | --- | --- |
| (Phe-Asp)6 (FDFDFDFDFDFD) | ~6 | ~7 |  |  |  |
| Ac-Pro-Asp-(Phe-Asp)5-Pro-NH2 (Ac-PDFDFDFDFDFDP-NH2) | ~6 | >7.5 | Viscous liquid |  |  |
| PDFDFDFDFDFDP [PFD-13, PD(FD)5P] |  |  |  | ~7 |  |
| PDLDLDLDLDLDP [PLD-13, PD(LD)5P] |  |  |  | forms hydrogel at lower pH compared to that of PFD-13 |  |
| PEFEFEFEFEFEP [PFE-13, PE(FE)5P] |  |  |  | > 7 |  |
| PELELELELELEP [PLE-13, PE(LE)5P] |  |  |  | ~6.5 |  |
| Pro-Asp-(Phe-Asp)6 (PDFDFDFDFDFDFD) | ~6 | ~7 | +after several hrs. |  |  |
| Pro-Asp-Phe-Asp (PDFD; printed: Pro-Asp-Phe-Asp) | ~3 | ~4 | liquid |  | liquid |
